According to publication PMC10713552 (Communications Biology, 2023):
Where two headings read alike, the source gives them in different places.

How the values were obtained:
Test in all cases: BLI
[1] = target: T1, D614G-Hexapro (WT) spike ectodomain (SARS-CoV-2 Wuhan-Hu-1 D614G, D614G); conditions: both partners purified
[2] = target: Omicron BA.5 spike protein ectodomain (BLI) (SARS-CoV-2 Omicron BA.5 (BA.4/5 spike), strain); conditions: both partners purified
[3] = target: Omicron BA.2.12 spike protein ectodomain (BLI) (SARS-CoV-2 Omicron BA.2.12.1, strain); conditions: both partners purified
[4] = target: T2, Omicron BA.1 spike protein ectodomain (BLI) (SARS-CoV-2 Omicron BA.1, strain); conditions: both partners purified
[5] = target: Omicron BA.2 spike protein ectodomain (BLI) (SARS-CoV-2, Omicron BA.2, strain); conditions: both partners purified
[6] = target: T1, D614G-Hexapro (WT) spike ectodomain
[7] = target: T2, Omicron BA.1 spike protein ectodomain …

B1: N3-1_Q (antibody, V domains shown)
VH: QVQLQQWGPGLVNPSETLSLTCSVSGGSFATENYYWSWIRQHPGEGLEWIGNIYFSGNTYYNPSLNNRFTISFDTSKNHLSLKLPSVTAADTAVYYCARGTIYFDQSGYRRVDPFHIWGQGTMVIVSS
VL: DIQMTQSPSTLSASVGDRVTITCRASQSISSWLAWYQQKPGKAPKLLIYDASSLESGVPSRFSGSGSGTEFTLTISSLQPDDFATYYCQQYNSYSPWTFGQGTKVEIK
notes: IgG1
kon [1]: 1000 M⁻¹ s⁻¹
Kd [2]: 771 nM
koff [2]: 0.00666 s⁻¹
kon [2]: 8640 M⁻¹ s⁻¹
Kd [3]: 291 nM
koff [3]: 0.00336 s⁻¹
kon [3]: 11500 M⁻¹ s⁻¹
Kd [4]: 4800 nM
koff [4]: 0.015 s⁻¹
kon [4]: 3120 M⁻¹ s⁻¹
Kd [5]: 483 nM
koff [5]: 0.00403 s⁻¹
kon [5]: 8360 M⁻¹ s⁻¹

B2: 0367-N3_T65N (antibody, V domains shown)
VH: QVQLQQWGPGLVNPSETLSLTCSVSGGSFATENYYWSWIRQHPGEGLEWIGNIYFSGNNYYNPSLNNRFTISFDTSKNHLSLKLPSVTAADTAVYYCARGTIYFDRSGYRRVDPFHIWGQGTMVIVSS
VL: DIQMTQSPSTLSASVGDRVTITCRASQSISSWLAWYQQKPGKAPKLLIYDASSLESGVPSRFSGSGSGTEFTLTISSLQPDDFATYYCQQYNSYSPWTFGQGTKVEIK
notes: source: Expi293F, transfected
Kd [6]: 1.09 nM
koff [6]: 0.000175 s⁻¹
kon [6]: 160000 M⁻¹ s⁻¹
Kd [7]: 642 nM
koff [7]: 0.00176 s⁻¹
kon [7]: 2740 M⁻¹ s⁻¹

B3: 0381-YN3_T65H (antibody, V domains shown)
VH: QVQLQQWGPGLVNPSETLSLTCSVSGGSFATENYYWSWIRQHPGEGLEWIGNIYFSGNHYYNPSLNNRFTISFDTSKNHLSLKLPSVTAADTAVYYCARGTIYFDYSGYRRVDPFHIWGQGTMVIVSS
VL: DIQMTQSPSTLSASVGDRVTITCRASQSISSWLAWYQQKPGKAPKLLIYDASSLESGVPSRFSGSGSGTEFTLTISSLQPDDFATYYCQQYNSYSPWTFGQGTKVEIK
notes: source: Expi293F, transfected
Kd [6]: 663 nM
koff [6]: 0.00016 s⁻¹
kon [6]: 242 M⁻¹ s⁻¹
Kd [7]: 8040 nM
koff [7]: 0.00217 s⁻¹
kon [7]: 269 M⁻¹ s⁻¹

B4: 0329-LN3_T65N (antibody, V domains shown)
VH: QVQLQQWGPGLVNPSETLSLTCSVSGGSFATENYYWSWIRQHPGEGLEWIGNIYFSGNNYYNPSLNNRFTISFDTSKNHLSLKLPSVTAADTAVYYCARGTIYFDLSGYRRVDPFHIWGQGTMVIVSS
VL: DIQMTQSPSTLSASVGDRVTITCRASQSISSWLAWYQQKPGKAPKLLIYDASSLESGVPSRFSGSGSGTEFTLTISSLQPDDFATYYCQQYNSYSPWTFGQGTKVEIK
notes: source: Expi293F, transfected
Kd [6]: 187 nM
koff [6]: 0.000519 s⁻¹
kon [6]: 2780 M⁻¹ s⁻¹
Kd [7]: 98.7 nM
koff [7]: 0.000925 s⁻¹
kon [7]: 9380 M⁻¹ s⁻¹

B5: 0354-MN3_T65V (antibody, V domains shown)
VH: QVQLQQWGPGLVNPSETLSLTCSVSGGSFATENYYWSWIRQHPGEGLEWIGNIYFSGNVYYNPSLNNRFTISFDTSKNHLSLKLPSVTAADTAVYYCARGTIYFDMSGYRRVDPFHIWGQGTMVIVSS
VL: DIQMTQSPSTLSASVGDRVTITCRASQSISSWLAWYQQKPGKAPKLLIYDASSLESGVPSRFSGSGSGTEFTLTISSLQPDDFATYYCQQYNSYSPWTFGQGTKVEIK
notes: source: Expi293F, transfected
Kd [6]: 292 nM
koff [6]: 0.00118 s⁻¹
kon [6]: 4030 M⁻¹ s⁻¹
Kd [7]: 67.6 nM
koff [7]: 0.00153 s⁻¹
kon [7]: 22700 M⁻¹ s⁻¹

B6: 0378-YN3_T65E (antibody, V domains shown)
VH: QVQLQQWGPGLVNPSETLSLTCSVSGGSFATENYYWSWIRQHPGEGLEWIGNIYFSGNEYYNPSLNNRFTISFDTSKNHLSLKLPSVTAADTAVYYCARGTIYFDYSGYRRVDPFHIWGQGTMVIVSS
VL: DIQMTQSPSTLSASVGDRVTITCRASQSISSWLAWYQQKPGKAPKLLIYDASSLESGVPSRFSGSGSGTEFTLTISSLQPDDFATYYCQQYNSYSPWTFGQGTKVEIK
notes: source: Expi293F, transfected
Kd [6]: 0.186 nM
koff [6]: 0.000168 s⁻¹
kon [6]: 906000 M⁻¹ s⁻¹
Kd [7]: 1740 nM
koff [7]: 0.000439 s⁻¹
kon [7]: 253 M⁻¹ s⁻¹

B7: 0344-MN3_T65I (antibody, V domains shown)
VH: QVQLQQWGPGLVNPSETLSLTCSVSGGSFATENYYWSWIRQHPGEGLEWIGNIYFSGNIYYNPSLNNRFTISFDTSKNHLSLKLPSVTAADTAVYYCARGTIYFDMSGYRRVDPFHIWGQGTMVIVSS
VL: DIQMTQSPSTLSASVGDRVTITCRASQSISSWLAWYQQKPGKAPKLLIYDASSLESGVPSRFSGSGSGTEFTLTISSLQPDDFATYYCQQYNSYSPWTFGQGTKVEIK
notes: source: Expi293F, transfected
Kd [6]: 1670 nM
koff [6]: 0.0005 s⁻¹
kon [6]: 299 M⁻¹ s⁻¹
Kd [7]: 151 nM
koff [7]: 0.0026 s⁻¹
kon [7]: 17200 M⁻¹ s⁻¹

B8: 0358-N3_T65D (antibody, V domains shown)
VH: QVQLQQWGPGLVNPSETLSLTCSVSGGSFATENYYWSWIRQHPGEGLEWIGNIYFSGNDYYNPSLNNRFTISFDTSKNHLSLKLPSVTAADTAVYYCARGTIYFDRSGYRRVDPFHIWGQGTMVIVSS
VL: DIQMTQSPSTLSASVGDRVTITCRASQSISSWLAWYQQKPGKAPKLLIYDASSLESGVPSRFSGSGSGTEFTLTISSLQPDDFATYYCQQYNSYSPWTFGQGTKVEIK
notes: source: Expi293F, transfected
kon [6]: 174 M⁻¹ s⁻¹
Kd [7]: 68.8 nM
koff [7]: 0.000857 s⁻¹
kon [7]: 12500 M⁻¹ s⁻¹

B9: 0386-YN3_T65N (antibody, V domains shown)
VH: QVQLQQWGPGLVNPSETLSLTCSVSGGSFATENYYWSWIRQHPGEGLEWIGNIYFSGNNYYNPSLNNRFTISFDTSKNHLSLKLPSVTAADTAVYYCARGTIYFDYSGYRRVDPFHIWGQGTMVIVSS
VL: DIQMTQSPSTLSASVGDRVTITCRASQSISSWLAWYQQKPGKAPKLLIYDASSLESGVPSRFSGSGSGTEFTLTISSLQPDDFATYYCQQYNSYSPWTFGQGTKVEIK
notes: source: Expi293F, transfected
Kd [6]: 8.83 nM
koff [6]: 0.00138 s⁻¹
kon [6]: 156000 M⁻¹ s⁻¹
Kd [7]: 66.3 nM
koff [7]: 0.00052 s⁻¹
kon [7]: 7850 M⁻¹ s⁻¹

B10: 0371-N3_T65S (antibody, V domains shown)
VH: QVQLQQWGPGLVNPSETLSLTCSVSGGSFATENYYWSWIRQHPGEGLEWIGNIYFSGNSYYNPSLNNRFTISFDTSKNHLSLKLPSVTAADTAVYYCARGTIYFDRSGYRRVDPFHIWGQGTMVIVSS
VL: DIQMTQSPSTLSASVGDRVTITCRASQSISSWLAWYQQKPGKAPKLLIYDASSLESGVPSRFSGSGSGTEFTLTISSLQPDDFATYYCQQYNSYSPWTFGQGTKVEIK
notes: source: Expi293F, transfected
Kd [6]: 592 nM
koff [6]: 0.000157 s⁻¹
kon [6]: 265 M⁻¹ s⁻¹
Kd [7]: 108 nM
koff [7]: 0.00113 s⁻¹
kon [7]: 10400 M⁻¹ s⁻¹

B11: 0363-N3_T65I (antibody, V domains shown)
VH: QVQLQQWGPGLVNPSETLSLTCSVSGGSFATENYYWSWIRQHPGEGLEWIGNIYFSGNIYYNPSLNNRFTISFDTSKNHLSLKLPSVTAADTAVYYCARGTIYFDRSGYRRVDPFHIWGQGTMVIVSS
VL: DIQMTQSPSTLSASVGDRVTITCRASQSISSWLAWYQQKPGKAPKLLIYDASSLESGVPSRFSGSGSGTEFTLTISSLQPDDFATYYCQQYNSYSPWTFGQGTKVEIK
notes: source: Expi293F, transfected
Kd [6]: 71 nM
koff [6]: 2.3e-05 s⁻¹
kon [6]: 324 M⁻¹ s⁻¹
Kd [7]: 1580 nM
koff [7]: 0.00106 s⁻¹
kon [7]: 673 M⁻¹ s⁻¹

B12: 0346-MN3_T65L (antibody, V domains shown)
VH: QVQLQQWGPGLVNPSETLSLTCSVSGGSFATENYYWSWIRQHPGEGLEWIGNIYFSGNLYYNPSLNNRFTISFDTSKNHLSLKLPSVTAADTAVYYCARGTIYFDMSGYRRVDPFHIWGQGTMVIVSS
VL: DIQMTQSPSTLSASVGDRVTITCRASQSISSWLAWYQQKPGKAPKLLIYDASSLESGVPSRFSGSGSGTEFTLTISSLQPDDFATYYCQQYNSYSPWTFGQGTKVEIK
notes: source: Expi293F, transfected
Kd [6]: 3320 nM
koff [6]: 0.000421 s⁻¹
kon [6]: 127 M⁻¹ s⁻¹
Kd [7]: 64.2 nM
koff [7]: 0.00252 s⁻¹
kon [7]: 39200 M⁻¹ s⁻¹

B13: 0380-YN3_T65G (antibody, V domains shown)
VH: QVQLQQWGPGLVNPSETLSLTCSVSGGSFATENYYWSWIRQHPGEGLEWIGNIYFSGNGYYNPSLNNRFTISFDTSKNHLSLKLPSVTAADTAVYYCARGTIYFDYSGYRRVDPFHIWGQGTMVIVSS
VL: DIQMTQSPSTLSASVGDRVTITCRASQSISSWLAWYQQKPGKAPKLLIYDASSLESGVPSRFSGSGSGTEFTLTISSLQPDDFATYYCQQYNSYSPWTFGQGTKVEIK
notes: source: Expi293F, transfected
Kd [6]: 77.3 nM
koff [6]: 0.000311 s⁻¹
kon [6]: 4020 M⁻¹ s⁻¹
Kd [7]: 4980 nM
koff [7]: 0.00218 s⁻¹
kon [7]: 438 M⁻¹ s⁻¹

B14: 0349-MN3_T65P (antibody, V domains shown)
VH: QVQLQQWGPGLVNPSETLSLTCSVSGGSFATENYYWSWIRQHPGEGLEWIGNIYFSGNPYYNPSLNNRFTISFDTSKNHLSLKLPSVTAADTAVYYCARGTIYFDMSGYRRVDPFHIWGQGTMVIVSS
VL: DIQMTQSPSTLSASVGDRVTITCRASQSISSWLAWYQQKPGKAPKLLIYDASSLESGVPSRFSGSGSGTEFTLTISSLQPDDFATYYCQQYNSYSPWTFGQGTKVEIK
notes: source: Expi293F, transfected
Kd [6]: 2.97 nM
koff [6]: 0.00117 s⁻¹
kon [6]: 392000 M⁻¹ s⁻¹
Kd [7]: 8260 nM
koff [7]: 0.00219 s⁻¹
kon [7]: 265 M⁻¹ s⁻¹

B15: 0351-MN3_T65R (antibody, V domains shown)
VH: QVQLQQWGPGLVNPSETLSLTCSVSGGSFATENYYWSWIRQHPGEGLEWIGNIYFSGNRYYNPSLNNRFTISFDTSKNHLSLKLPSVTAADTAVYYCARGTIYFDMSGYRRVDPFHIWGQGTMVIVSS
VL: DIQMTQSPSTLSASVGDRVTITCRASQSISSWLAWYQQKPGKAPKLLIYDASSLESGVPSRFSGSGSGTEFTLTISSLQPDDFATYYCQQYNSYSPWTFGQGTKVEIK
notes: source: Expi293F, transfected
Kd [6]: 3.87 nM
koff [6]: 0.000806 s⁻¹
kon [6]: 208000 M⁻¹ s⁻¹
Kd [7]: 175 nM
koff [7]: 0.00187 s⁻¹
kon [7]: 10700 M⁻¹ s⁻¹

B16: N3-1_V (antibody, V domains shown)
VH: QVQLQQWGPGLVNPSETLSLTCSVSGGSFATENYYWSWIRQHPGEGLEWIGNIYFSGNTYYNPSLNNRFTISFDTSKNHLSLKLPSVTAADTAVYYCARGTIYFDVSGYRRVDPFHIWGQGTMVIVSS
VL: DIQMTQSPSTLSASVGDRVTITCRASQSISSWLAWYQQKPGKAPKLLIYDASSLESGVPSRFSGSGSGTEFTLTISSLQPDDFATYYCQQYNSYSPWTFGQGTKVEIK
notes: IgG1
Kd [1]: 3.78 nM
koff [1]: 0.00023 s⁻¹
kon [1]: 60900 M⁻¹ s⁻¹
Kd [2]: 1470 nM
koff [2]: 0.0163 s⁻¹
kon [2]: 11100 M⁻¹ s⁻¹
Kd [3]: 421 nM
koff [3]: 0.00542 s⁻¹
kon [3]: 12900 M⁻¹ s⁻¹
Kd [4]: 1340 nM
koff [4]: 0.00726 s⁻¹
kon [4]: 5410 M⁻¹ s⁻¹
Kd [5]: 704 nM
koff [5]: 0.00681 s⁻¹
kon [5]: 9670 M⁻¹ s⁻¹

B17: 0352-MN3_T65S (antibody, V domains shown)
VH: QVQLQQWGPGLVNPSETLSLTCSVSGGSFATENYYWSWIRQHPGEGLEWIGNIYFSGNSYYNPSLNNRFTISFDTSKNHLSLKLPSVTAADTAVYYCARGTIYFDMSGYRRVDPFHIWGQGTMVIVSS
VL: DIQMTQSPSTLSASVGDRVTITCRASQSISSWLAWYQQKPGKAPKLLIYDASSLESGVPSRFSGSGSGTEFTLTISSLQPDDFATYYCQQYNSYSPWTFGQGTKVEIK
notes: source: Expi293F, transfected
Kd [6]: 6.97 nM
koff [6]: 0.0014 s⁻¹
kon [6]: 201000 M⁻¹ s⁻¹
Kd [7]: 124 nM
koff [7]: 0.0017 s⁻¹
kon [7]: 13700 M⁻¹ s⁻¹

B18: 0379-YN3_T65F (antibody, V domains shown)
VH: QVQLQQWGPGLVNPSETLSLTCSVSGGSFATENYYWSWIRQHPGEGLEWIGNIYFSGNFYYNPSLNNRFTISFDTSKNHLSLKLPSVTAADTAVYYCARGTIYFDYSGYRRVDPFHIWGQGTMVIVSS
VL: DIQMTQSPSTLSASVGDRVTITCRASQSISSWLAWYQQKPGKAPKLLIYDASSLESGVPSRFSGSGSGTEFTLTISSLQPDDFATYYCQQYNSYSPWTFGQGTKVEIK
notes: source: Expi293F, transfected
Kd [6]: 2000 nM
koff [6]: 0.000202 s⁻¹
kon [6]: 101 M⁻¹ s⁻¹
Kd [7]: 89.3 nM
koff [7]: 0.00105 s⁻¹
kon [7]: 11700 M⁻¹ s⁻¹

B19: 0319-LN3_T65A (antibody, V domains shown)
VH: QVQLQQWGPGLVNPSETLSLTCSVSGGSFATENYYWSWIRQHPGEGLEWIGNIYFSGNAYYNPSLNNRFTISFDTSKNHLSLKLPSVTAADTAVYYCARGTIYFDLSGYRRVDPFHIWGQGTMVIVSS
VL: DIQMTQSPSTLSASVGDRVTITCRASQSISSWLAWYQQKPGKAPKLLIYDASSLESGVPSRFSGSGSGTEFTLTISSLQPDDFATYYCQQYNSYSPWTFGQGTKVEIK
notes: source: Expi293F, transfected
Kd [6]: 244 nM
koff [6]: 0.000836 s⁻¹
kon [6]: 3430 M⁻¹ s⁻¹
Kd [7]: 59.6 nM
koff [7]: 0.00229 s⁻¹
kon [7]: 38400 M⁻¹ s⁻¹

B20: 0362-N3_T65H (antibody, V domains shown)
VH: QVQLQQWGPGLVNPSETLSLTCSVSGGSFATENYYWSWIRQHPGEGLEWIGNIYFSGNHYYNPSLNNRFTISFDTSKNHLSLKLPSVTAADTAVYYCARGTIYFDRSGYRRVDPFHIWGQGTMVIVSS
VL: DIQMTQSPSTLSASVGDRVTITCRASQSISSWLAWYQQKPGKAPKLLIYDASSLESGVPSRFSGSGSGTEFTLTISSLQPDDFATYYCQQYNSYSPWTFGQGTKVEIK
notes: source: Expi293F, transfected
Kd [6]: 318 nM
koff [6]: 0.00046 s⁻¹
kon [6]: 1450 M⁻¹ s⁻¹
Kd [7]: 378 nM
koff [7]: 0.00114 s⁻¹
kon [7]: 3020 M⁻¹ s⁻¹
